Source: IntAct's records for PubMed 21633354

Biological target: T1, cnd2_schpo cnd2 (UniProt Q9Y7R3)
T1 sequence: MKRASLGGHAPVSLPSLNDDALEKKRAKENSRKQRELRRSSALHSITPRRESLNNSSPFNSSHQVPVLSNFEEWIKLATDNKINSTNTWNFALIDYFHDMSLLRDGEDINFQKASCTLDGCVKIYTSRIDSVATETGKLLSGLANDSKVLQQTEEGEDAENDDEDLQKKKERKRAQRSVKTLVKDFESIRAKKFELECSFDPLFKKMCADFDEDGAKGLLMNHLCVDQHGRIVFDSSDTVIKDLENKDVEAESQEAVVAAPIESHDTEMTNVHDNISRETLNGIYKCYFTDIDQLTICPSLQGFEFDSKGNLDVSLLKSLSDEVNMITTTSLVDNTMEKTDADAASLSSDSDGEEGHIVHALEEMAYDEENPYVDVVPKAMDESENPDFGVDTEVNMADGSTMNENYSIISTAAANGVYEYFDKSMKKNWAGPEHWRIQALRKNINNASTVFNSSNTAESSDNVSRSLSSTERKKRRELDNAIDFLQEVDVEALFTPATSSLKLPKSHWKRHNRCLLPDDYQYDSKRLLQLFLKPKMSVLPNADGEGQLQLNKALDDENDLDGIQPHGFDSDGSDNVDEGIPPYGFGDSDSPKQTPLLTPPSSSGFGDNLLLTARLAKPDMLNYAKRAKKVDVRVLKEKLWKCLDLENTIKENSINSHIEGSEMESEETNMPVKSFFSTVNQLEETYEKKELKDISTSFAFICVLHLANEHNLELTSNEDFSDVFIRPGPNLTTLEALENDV

effect of a mutation on the interaction	Substance
disrupting interaction strength	Histone H2A-beta (Schizosaccharomyces pombe (strain ATCC 38366 / 972)) (from UniProt P04910) K5A;K9A;K14A;R19A;K22A
decreasing interaction	Histone H2A-beta (Schizosaccharomyces pombe (strain ATCC 38366 / 972)) (from UniProt P04910) R19A
disrupting interaction strength	Histone H2A-beta (Schizosaccharomyces pombe (strain ATCC 38366 / 972)) (from UniProt P04910) K14A;R19A;K22A
